From PMC12484979 (Nature Communications, 2025) come the findings set out here.

What all share (assay): cryo-EM structure
Data set [1] addresses CD20 (UniProt P11836).
Data set [2] deals with human β-tryptase, tetrameric (activated by enterokinase cleavage) (human) (UniProt Q15661).
Data set [3] deals with the molecule itself.

“Rituximab Fab, wild type (human-mouse chimeric)” yielded a stoichiometry N (Fab per CD20 dimer) in data set [1] of 2.

On to “human β-tryptase, tetrameric (activated by enterokinase cleavage) (from UniProt Q15661 31-275) (enzyme)”, for which the stoichiometry N in data set [2] is 4.

B1: CD20 (natural protein)
chain: TQSFFMRESKTLGAVQIMNGLFHIALGGLLMIPAGIYAPICVTVWYPLWGGIMYIISGSLLAATEKNSRKCLVKGKMIMNSLSLFAAISGMILSIMDILNIKISHFLKMESLNFIRAHTPYINIYNCEPANPSEKNSPSTQYCYSIQSLFLGILSVMLIFAFFQELVIAGIVENEWKRTCSRPKSNIVLLSAEEKKEQTIEIKEEVVGLTETSSQPKNEEDIEIIPIQEEEEEETETNFPEPPQDQESSPIENDSSP
With B1, the “stoichiometry N” value in data set [3] turned out to be 2.

A word on the stoichiometry N: it is the number of molecules, sites or subunits per partner or assembly.
